Earlier results, collected in article PMC5010500 (Journal of molecular biology, 2016).

Target: Keap1 Kelch domain (Homo sapiens) (UniProt Q14145)
Assay: ITC
Settings: cited from earlier work

Sequence of mVP24 (P35256 whole entry): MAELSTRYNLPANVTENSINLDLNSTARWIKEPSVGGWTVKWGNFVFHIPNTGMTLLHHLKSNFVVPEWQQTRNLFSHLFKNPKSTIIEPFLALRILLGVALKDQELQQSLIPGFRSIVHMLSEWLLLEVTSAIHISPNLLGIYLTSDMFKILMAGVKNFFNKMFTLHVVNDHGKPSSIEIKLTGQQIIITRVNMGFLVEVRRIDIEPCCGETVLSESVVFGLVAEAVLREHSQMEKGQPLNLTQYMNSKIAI
Sequence of Keap1 Kelch domain (Homo sapiens) (Q14145 321-609): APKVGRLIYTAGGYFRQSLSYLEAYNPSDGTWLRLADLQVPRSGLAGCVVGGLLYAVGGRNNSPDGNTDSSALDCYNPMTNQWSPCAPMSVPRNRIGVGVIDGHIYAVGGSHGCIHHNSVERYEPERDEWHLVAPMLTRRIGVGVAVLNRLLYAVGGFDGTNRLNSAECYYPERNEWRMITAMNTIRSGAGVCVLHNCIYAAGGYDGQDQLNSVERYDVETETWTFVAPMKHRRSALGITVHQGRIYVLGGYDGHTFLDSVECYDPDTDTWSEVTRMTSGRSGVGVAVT

**Q.** For mVP24 (from UniProt P35256), which Kd is on record?
**A.** The Kd was 160 nM.
